Positions count from the first letter of the chain named.
B1: CD71-binding FN3 domain of SEQ ID NO: 133 (designed binder)
chain: MSLPAPKNLVVSRVTEDSARLSWTAPDAAFDSFKIKYAEYDRYGEAIALFVPGSERSYDLTGLKPGTEYFVHIDGVKGGTDSQPLVASFTT
B2: CD71-binding FN3 domain of SEQ ID NO: 136 (designed binder)
chain: MSLPAPKNLVVSRVTEDSARLSWTAPDAAFDSFEIDYVEFIFTGEAIGLIVPGSERSYDLTGLKPGTEYWVTIAGVKGGEWSTPLQAFLTT
B3: CD71-binding FN3 domain of SEQ ID NO: 123 (designed binder)
chain: MSLPAPKNLVVSRVTEDSARLSWTAPDAAFDSFAIRYWELRATGEAIPLSVPGSERSYDLTGLKPGTEYHVAISGVKGGKSSYPLRASFTT
B4: CD71-binding FN3 domain of SEQ ID NO: 134 (designed binder)
chain: MSLPAPKNLVVSRVTEDSARLSWTAPDAAFDSFDINYWENESGGEAIALFVPGSERSYDLTGLKPGTEYLVTIAGVKGGWWSKPLYATFTT
B5: CD71-binding FN3 domain of SEQ ID NO: 153 (designed binder)
chain: MSLPAPKNLVVSRVTEDSARLSWTAPDAAFDSFYIAYAEPRPDGEAIVLAVPGSERSYDLTGLKPGTEYSVLIHGVKGGLLSSPLGADFTT
B6: CD71-binding FN3 domain of SEQ ID NO: 125 (designed binder)
chain: B5 chain with V48I, A50L, G86H, D88H
B7: CD71-binding FN3 domain of SEQ ID NO: 165 (designed binder)
chain: B5 chain with V48L, A50E, T61A, D88E
B8: CD71-binding FN3 domain of SEQ ID NO: 121 (designed binder)
chain: MSLPAPKNLVVSRVTEDSARLSWTAPDAAFDSFFIGYLEPQPPGEAITLYVPGSERSYDLTGLKPGTEYNVTIQGVKGGFPSAPLSAIFTT
B9: CD71-binding FN3 domain of SEQ ID NO: 127 (designed binder)
chain: B8 chain with Y50L, A83G, S86Q, I88S
B10: CD71-binding FN3 domain of SEQ ID NO: 135 (designed binder)
chain: B8 chain with P42S, T48A, A83E, S86I, I88N
B11: CD71-binding FN3 domain of SEQ ID NO: 137 (designed binder)
chain: B8 chain with A83D, S86V, I88H
B12: CD71-binding FN3 domain of SEQ ID NO: 138 (designed binder)
chain: B8 chain with A46V, T48H, Y50F, A83M
B13: CD71-binding FN3 domain of SEQ ID NO: 128 (designed binder)
chain: MSSLPAPKNLVVSRVTEDSARLSWTAPDAAFDSFEIGYFENLYLGEAIVLTVPGSERSYDLTGLKPGTEYWVQIGGVKGGNWSAPLSAIFTT
B14: CD71-binding FN3 domain of SEQ ID NO: 185 (designed binder)
chain: B13 chain with S2G, G37S, F39W, N41H, L42T, Y43F, L44N, V49I, T51F
B15: CD71-binding FN3 domain of SEQ ID NO: 202 (designed binder)
chain: MSLPAPKNLVVSRVTEDSARLSWTAPDAAFDSFEIGYFENLYLGEAIVLTVPGSERSYDLTGLKPGTEYYVHIGGVKGGIWSSPLSAIFTT
B16: CD71-binding FN3 domain of SEQ ID NO: 207 (designed binder)
chain: B15 chain with F38W, L41A, L43K, Y70V, H72F, I80V, S83V, F89S
B17: CD71-binding FN3 domain of SEQ ID NO: 209 (designed binder)
chain: B15 chain with G36A, N40R, L41T, Y42W, L43F, Y70W, H72Q, I80D, S83R
B18: CD71-binding FN3 domain of SEQ ID NO: 215 (designed binder)
chain: B15 chain with F33L, Y70W, H72Q, I80N, S83A
B19: CD71-binding FN3 domain of SEQ ID NO: 203 (designed binder)
chain: B15 chain with S18F, G36A, F38W, N40Q, L41S, L43T, Y70F, I80V, S83T
B20: CD71-binding FN3 domain of SEQ ID NO: 213 (designed binder)
chain: B15 chain with Y70W, H72Q, V76A, I80N, S83A
B21: CD71-binding FN3 domain of SEQ ID NO: 214 (designed binder)
chain: MSLPAPKNLVVSRVTEDSARLSWTAPDAAFDSFEIDYGEYSQAGEAIGLLVPGSERSYDLTGLKPGTEYWVQIGGVKGGNWSAPLSAIFTT
B22: CD71-binding FN3 domain of SEQ ID NO: 208 (designed binder)
chain: B15 chain with E34F, Y70W, H72Q, I80N, S83A
B23: CD71-binding FN3 domain of SEQ ID NO: 206 (designed binder)
chain: B15 chain with V11A, Y70W, H72Q, I80N, S83A
B24: CD71-binding FN3 domain of SEQ ID NO: 212 (designed binder)
chain: B15 chain with S57Y, Y70W, H72Q, I80N, S83A
B25: CD71-binding FN3 domain of SEQ ID NO: 205 (designed binder)
chain: B15 chain with V48H, T50F, Y70N, H72T, G74Q, I80F, W81P, S83E, S86I, I88N
B26: CD71-binding FN3 domain of SEQ ID NO: 211 (designed binder)
chain: B15 chain with G36V, F38A, N40P, L41V, Y42R, L43F, Y70W, H72Q, I80E, P84L
B27: CD71-binding FN3 domain of SEQ ID NO: 216 (designed binder)
chain: B15 chain with G36A, N40Q, L41T, L43T, Y70W, H72Q, I80T, S83A, F89S
B28: CD71-binding FN3 domain of SEQ ID NO: 217 (designed binder)
chain: B15 chain with G36A, N40Q, L41T, L43T, Y70W, H72A, I80L, S83L
B29: CD71-binding FN3 domain of SEQ ID NO: 129 (designed binder)
chain: MGGSLPAPKNLVVSRVTEDSARLSWTAPDAAFDSFEIGYFENLYLGEAIVLTVPGSERSYDLTGLKPGTEYWVQIGGVKGGNWSAPLSAIFTT

Legend:
[1] = molecular target: T1, human CD71 extracellular domain (human, UniProt P02786 89-760); test: primary ELISA, signal ratio to HSA
T1 construct: also called hCD71; human CD71-ECD

[2] = molecular target: T2, apical domain of cynomolgus CD71 (cynomolgus, UniProt A0A2K5X958 189-383); test: primary ELISA, signal ratio to HSA
T2 construct: domain: apical domain; also called Cyno apical domain

[3] = molecular target: T1, human CD71 extracellular domain; test: primary ELISA; note: test concentration or dose not given here
[4] = molecular target: T2, apical domain of cynomolgus CD71; test: primary ELISA; note: test concentration or dose not given here

T1 sequence (P02786 89-760): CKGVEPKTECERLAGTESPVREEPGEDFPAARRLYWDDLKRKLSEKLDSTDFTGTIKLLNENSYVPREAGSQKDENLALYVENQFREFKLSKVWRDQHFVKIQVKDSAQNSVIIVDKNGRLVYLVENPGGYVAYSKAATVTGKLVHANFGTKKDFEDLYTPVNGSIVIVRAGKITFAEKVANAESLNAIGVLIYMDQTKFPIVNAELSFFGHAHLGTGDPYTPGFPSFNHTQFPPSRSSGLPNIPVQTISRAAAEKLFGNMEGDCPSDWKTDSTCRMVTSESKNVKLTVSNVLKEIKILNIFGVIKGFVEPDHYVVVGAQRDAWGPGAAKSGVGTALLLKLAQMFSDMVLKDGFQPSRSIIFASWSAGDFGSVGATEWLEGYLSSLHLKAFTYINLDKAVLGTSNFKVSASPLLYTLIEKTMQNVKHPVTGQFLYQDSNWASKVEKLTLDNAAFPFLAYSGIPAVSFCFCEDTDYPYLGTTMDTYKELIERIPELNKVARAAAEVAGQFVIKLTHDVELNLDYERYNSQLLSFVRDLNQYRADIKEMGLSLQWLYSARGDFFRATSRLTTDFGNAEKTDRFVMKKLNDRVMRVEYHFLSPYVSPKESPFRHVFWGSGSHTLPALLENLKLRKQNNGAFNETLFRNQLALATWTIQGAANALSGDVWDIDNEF
T2 sequence (A0A2K5X958 entry or part of it): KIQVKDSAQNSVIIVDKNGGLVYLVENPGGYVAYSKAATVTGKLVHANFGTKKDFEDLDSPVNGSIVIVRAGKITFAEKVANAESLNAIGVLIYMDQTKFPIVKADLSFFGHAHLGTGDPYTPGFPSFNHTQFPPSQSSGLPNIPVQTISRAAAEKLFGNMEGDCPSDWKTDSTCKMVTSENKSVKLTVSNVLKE

| Binder | hCD71:HSA [1] | Cyno apical domain:HSA [2] | RLU [3] | RLU [4] |
| --- | --- | --- | --- | --- |
| B1 | 138 | 387 | 1.83e+06 RLU | 5.11e+06 RLU |
| B2 | 273 | 298 | 4.08e+06 RLU | 4.46e+06 RLU |
| B3 | 108 | 125 | 4.51e+06 RLU | 5.2e+06 RLU |
| B4 | 192 | 245 | 4.52e+06 RLU | 5.77e+06 RLU |
| B5 | 141 | 127 | 4.57e+06 RLU | 4.11e+06 RLU |
| B6 | 109 | 153 | 3.64e+06 RLU | 5.09e+06 RLU |
| B7 | 305 | 259 | 4.25e+06 RLU | 3.62e+06 RLU |
| B8 | 109 | 125 | 5.42e+06 RLU | 6.22e+06 RLU |
| B9 | 188 | 259 | 4.73e+06 RLU | 6.52e+06 RLU |
| B10 | 224 | 232 | 5.86e+06 RLU | 6.07e+06 RLU |
| B11 | 257 | 218 | 7.03e+06 RLU | 5.96e+06 RLU |
| B12 | 246 | 275 | 5.91e+06 RLU | 6.59e+06 RLU |
| B13 | 215 | 259 | 4.62e+06 RLU | 5.56e+06 RLU |
| B14 | 148 | 267 | 2.26e+06 RLU | 4.08e+06 RLU |
| B15 | 58 | 184 | 1.11e+06 RLU | 3.51e+06 RLU |
| B16 | 22 | 31 | 3.58e+06 RLU | 4.94e+06 RLU |
| B17 | 356 | 423 | 4.27e+06 RLU | 5.07e+06 RLU |
| B18 | 48 | 71 | 3.34e+06 RLU | 4.95e+06 RLU |
| B19 | 168 | 362 | 2.25e+06 RLU | 4.85e+06 RLU |
| B20 | 130 | 251 | 2.46e+06 RLU | 4.74e+06 RLU |
| B21 | 36 | 148 | 1.01e+06 RLU | 4.2e+06 RLU |
| B22 | 142 | 19 | 4.06e+06 RLU | 5.45e+06 RLU |
| B23 | 49 | 67 | 3.9e+06 RLU | 5.33e+06 RLU |
| B24 | 97 | 176 | 2.82e+06 RLU | 5.13e+06 RLU |
| B25 | 53 | 213 | 1.02e+06 RLU | 4.1e+06 RLU |
| B26 | 76 | 177 | 2.02e+06 RLU | 4.67e+06 RLU |
| B27 | 80 | 119 | 3.37e+06 RLU | 5.04e+06 RLU |
| B28 | 43 | 74 | 2.33e+06 RLU | 3.98e+06 RLU |
| B29 | 159 | 313 | 2.49e+06 RLU | 4.89e+06 RLU |

Reference: patent publication US20260151494A1 (ARO BIOTHERAPEUTICS, published 2026)
